Results reported in the nanobody polyreactivity screen of Harvey et al. (2022).

Assay: yeast display, Sf9 membrane polyspecificity reagent, FACS + sequencing; frameworks hold sequencing errors
Procedure, shortened: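 Galactose-induced (36–48 hours) yeast carrying a synthetic nanobody display library were exposed to 10% biotinylated, detergent-solubilized Sf9 membrane reagent at 4 °C for 1 hour. FACS followed streptavidin microbead enrichment, using low and high (top ~1%) gates for expression (anti-HA) and reagent binding (streptavidin). Colony PCR, MiSeq 2 × 250 sequencing and CDR-length filtering followed. Labels for polyreactivity reflect the gate of origin.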

Sequence	polyreactivity (PSR sort gate)
QVQLVESGGGLVQAGGSLRLSCAASGFTFYRYTMGWYRQAPGKERELFAAISARGVSTYYADSVKGRFTISRDNAKNTVYLQMNSLKPEDTAVYYCYVSRYDTWGQGTQVTVTS	high polyreactivity
QVQLVESGGGLVQAGGSLRLSCAASGSTFAFYAMGWYRPAPGKERELVAAITWDGGTTYYADSVKGRFTIARDNAKNTVYLQMNSLKPEDSAVYYCAADYASVSIYDNVPSAPGYDYWGQGTQVTVSS	low polyreactivity
QVQLVESGGGLVQAGGSLRLSCAASGYIFTYYAMGWYRQAPGKERELVAAISGSDGNTYYADSVKGRFTISRDNAKNTVYLQMTSLKPEDTAVYYCAKSGGLTFRSQRYDYWGQGTQVTVSS	low polyreactivity
QVQLVESGGGLVQAGGSLRLSCAASGRIFGVYAMGWYRQAPGKERELVAAITFNAGSTYYADSVKGRFTISRDNAKNTVYLQMNSLIPEDTAVYYCNAYTESWYPIYFFGWSYTDVDYWGQGTQVTVSS	low polyreactivity
QVQLVESGGGLVQAGGSLRVSCAPSGRTFRYNTMGWYRPAPGKERELVARITWSGGSTYYADSVKGRFTISRDNAKNTVYLQMNSLKPEDTAVSYCAAGSGWRFDYWGQGTQVTVSS	low polyreactivity
QVQLVESGGGLVQAGGSLRLSCAASGSIFYHNAMGWYRQAPGKERELVAAITWSGSTTYYADSVKGRFTISRDNAKNTVYLQMNSLKPEDTAVYYCNGGYRHGHYDYWGQGTQVTVSS	low polyreactivity
QVQLVESGGGLVQAGGSLRLSCAASGLIYFYYDMGWYRQAPGKERELVAAISQRGGSTYYADSVKGRFTISRDNAKNTVYLQMNSLKPEDTAVYYCNAYSQRYGYYYWGQGTQVTVSS	high polyreactivity
QVQLVESGGGLVQAGGSLRLSCAASGFTFRGYVMGWYRQAPGKERELVAAITNIGTSTYYADSVKGRFTISRDNAKNTVYLQMNSLKPEDTAVYYCAARLRTKFYYWGQGTLVTVSS	low polyreactivity
QVQLVESGGGLVQAGGSLRLSCAASGSTFASYAMGSYRQATGKETELVASITRRGGSTDYADSVKGRFTISRDNAKTTVYLQMNSLKPEDTSVYYAVETAWSYNSNYWFDYWGQGTQVTVSS	high polyreactivity
QGQLVESGGGLVQAGGSLRLSCAASGRIFVANAMGWYRQAPGKERELVAAISGRGSRTYYADSVKGRFTISRDNAKKTVYIQMNSLKPEETAVYSCAARYRYDGRYDYWGPGTQVTVSS	high polyreactivity
QVQLVESGGGLVQAGGSLRLSCAASGSIFESYAMGWYRQAPGKEREFVAAISDSGADTYYADSVKGRFTISRDNAKNTVYLQMNSLKPEDTAVYYCNADKEFAVLGQGMDYWGQGTQVTVSS	low polyreactivity
QVQLVESGGGLVQAGGSLRLSCAASGSTFYVNSMGWYRQAPGKERELVAGISFSDGSTYYADSVKGRFTISRDNAKNTVYLQMNSLKPEDTAVYYCATVGALDIYYGYGYWVQGTQVTVSS	low polyreactivity
QVQLQESGGGLVQAGGCLSCTASGTIFGQGDMGWSRQSPGKERELVATINDGASTYYADSVKGRFTISRDKAKNTVYLQKNSLKPDDTAVYYCAVLTDITTYFGYWGQGTQVTVSS	low polyreactivity
QVQLVESGGGLVQAGGSLRLTCAASGPIFVLYAMGWYRQAPGKERELVAAISTSGGSTYYADSVKGRFTISRDNAKNTVYLQMNSLKPEDTAVYYCAADRSARFLFIQYYPYGMDYWGQGTQVTVSS	high polyreactivity
QVQLEESGGGLDQAGGSLRLSCAASGLILDYNDIGGYRQAAGQERELVASITGGGSTYYADSVKGRFRISRDNAKNTVYLQMNSLKPQDTSVYSCNADPVGVYCFDLDYWGQGTQVTVSS	low polyreactivity
QVQLVESGGGLVQAGGSLRLSCAASGSTVGSNAMGWYRQAPGKERELVAAISSDGSTNYADSVKGRFTISRDNAKNTVSLQMNSLKPEETAVYYCKAVVQDADWGYDYWGQGTQVTLSS	low polyreactivity
QVQLVESGGGLVQAGGSLRLSCADSGITFSRNAMGWYRQAPGKEMELVATITSGGSTNYADSVKGRFTISRDNAKNTVYLQMNSLKPEDTAVYYCNAVWNTFISGRSYDYWGQGTQVTVSS	low polyreactivity
